According to patent US20240376216A1 (NINGBO T MAXIMUM BIOPHARMACEUTICALS, published 2024):

Biological target: T1, IL13Rα2 on U251-LG target cells (UniProt Q14627 27-380, limits assumed)
T1 sequence (looked up): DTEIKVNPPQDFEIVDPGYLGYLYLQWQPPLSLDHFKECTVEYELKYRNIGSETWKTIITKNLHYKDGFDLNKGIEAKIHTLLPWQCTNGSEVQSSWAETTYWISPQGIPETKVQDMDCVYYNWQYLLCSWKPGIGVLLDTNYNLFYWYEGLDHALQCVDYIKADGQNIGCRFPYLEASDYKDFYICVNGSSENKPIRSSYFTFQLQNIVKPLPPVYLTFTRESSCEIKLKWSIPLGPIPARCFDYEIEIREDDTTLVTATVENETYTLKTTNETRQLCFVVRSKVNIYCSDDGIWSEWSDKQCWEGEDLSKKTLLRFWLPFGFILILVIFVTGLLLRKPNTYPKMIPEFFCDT
Test: cell-based or functional assay

B1: anti-IL13Rα2 CAR VLVH (murine) (other)
chain: DIVMTQSHKFISTSVGDRVSITCKASQDVGTAVAWYQQIPGQSPKLLIYSASYRSTGIPDRFTGSGSGTDFSFIISSVQAEDLALYYCQHHYSAPWTFGGGTTLDIKGGGGSGGGGSGGGGSEVQLVESGGDLVRPGGSLQLSCAASGFTFSRNGMSWVRQTPDRRLEWVATVSSGGSYIYYADSVKGRFTISRDNARNTLYLQMSSLKSEDTAMYYCARQGTTALATRFFDVWGAGTTVTVSSFVPVFLPAKPTTTPAPRPPTPAPTIASQPLSLRPEACRPAAGGAVHTRGLDFACDIYIWAPLAGTCGVLLLSLVITLYCNHRNKRGRKKLLYIFKQPFMRPVQTTQEEDGCSCRFPEEEEGGCELRVKFSRSADAPAYQQGQNQLYNELNLGRREEYDVLDKRRGRDPEMGGKPRRKNPQEGLYNELQKDKMAEAYSEIGMKGERRRGKGHDGLYQGLSTATKDTYDALHMQALPPR
killing efficiency (lysis of target cells by luciferase activity, 24 h co-culture, effector-to-target ratio 2:1): > 90%
